Laboratory results from US20260184748A1 (University of Pennsylvania, published 2026).
Where no end group is shown, it is not given here.

Assays:
Assay in all cases: cell-based or functional assay
HTR2A = HTR2A (UniProt P28223 1-471)
HTR5A = HTR5A (UniProt P47898 1-357)
MC4R = MC4R (UniProt P32245 1-332)
NPY1R = target: T1, NPY1R (UniProt P25929 1-384)
T1 sequence (looked up): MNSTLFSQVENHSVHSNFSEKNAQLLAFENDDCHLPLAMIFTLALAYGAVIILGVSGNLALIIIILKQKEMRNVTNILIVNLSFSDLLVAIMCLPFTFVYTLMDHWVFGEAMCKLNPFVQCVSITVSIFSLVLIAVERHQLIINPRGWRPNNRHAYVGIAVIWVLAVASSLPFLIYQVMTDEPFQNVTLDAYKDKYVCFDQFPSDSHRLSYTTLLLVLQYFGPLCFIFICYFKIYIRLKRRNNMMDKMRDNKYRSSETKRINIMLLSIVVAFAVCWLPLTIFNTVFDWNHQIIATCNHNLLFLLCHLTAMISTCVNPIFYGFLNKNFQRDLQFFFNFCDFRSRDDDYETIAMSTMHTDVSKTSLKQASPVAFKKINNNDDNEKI

OPRD1 = OPRD1 (UniProt P41143 1-372)
OPRD1, sequence (P41143 whole entry): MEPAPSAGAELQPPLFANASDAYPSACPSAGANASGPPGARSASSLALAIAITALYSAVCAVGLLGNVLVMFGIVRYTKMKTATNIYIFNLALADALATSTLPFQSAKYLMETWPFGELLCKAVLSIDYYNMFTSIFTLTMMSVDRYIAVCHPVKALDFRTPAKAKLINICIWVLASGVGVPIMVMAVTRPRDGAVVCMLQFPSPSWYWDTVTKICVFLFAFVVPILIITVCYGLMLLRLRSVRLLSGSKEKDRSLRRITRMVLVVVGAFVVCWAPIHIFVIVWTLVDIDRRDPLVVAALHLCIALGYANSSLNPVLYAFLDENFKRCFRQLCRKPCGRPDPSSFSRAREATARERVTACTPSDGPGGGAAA

OXTR = target: T2, OXTR (UniProt P30559 1-389)
T2 sequence (looked up): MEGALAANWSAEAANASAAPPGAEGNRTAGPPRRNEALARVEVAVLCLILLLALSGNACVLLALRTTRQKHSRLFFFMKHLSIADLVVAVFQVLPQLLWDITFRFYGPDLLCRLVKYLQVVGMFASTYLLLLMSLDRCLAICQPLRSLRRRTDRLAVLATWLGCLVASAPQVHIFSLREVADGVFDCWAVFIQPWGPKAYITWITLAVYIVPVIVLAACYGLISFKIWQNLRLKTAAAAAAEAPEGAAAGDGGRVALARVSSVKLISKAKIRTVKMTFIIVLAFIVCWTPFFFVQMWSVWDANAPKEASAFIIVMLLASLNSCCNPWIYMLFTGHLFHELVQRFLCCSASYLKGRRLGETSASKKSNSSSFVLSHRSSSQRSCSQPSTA

C5aR1 = target: T3, C5aR1 (UniProt P21730 1-350)
T3 sequence (looked up): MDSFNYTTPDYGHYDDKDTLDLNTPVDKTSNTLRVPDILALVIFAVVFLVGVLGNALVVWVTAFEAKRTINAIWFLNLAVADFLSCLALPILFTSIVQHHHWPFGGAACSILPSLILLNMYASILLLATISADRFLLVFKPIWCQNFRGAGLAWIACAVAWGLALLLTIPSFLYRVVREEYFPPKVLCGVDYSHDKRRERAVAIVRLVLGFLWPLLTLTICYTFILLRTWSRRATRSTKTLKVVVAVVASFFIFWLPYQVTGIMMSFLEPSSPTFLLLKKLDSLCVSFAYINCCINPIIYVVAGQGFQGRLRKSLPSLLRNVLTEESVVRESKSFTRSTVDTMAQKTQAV

C5L2 = C5L2 (UniProt Q9P296 1-337)
C5L2, sequence (Q9P296 whole entry): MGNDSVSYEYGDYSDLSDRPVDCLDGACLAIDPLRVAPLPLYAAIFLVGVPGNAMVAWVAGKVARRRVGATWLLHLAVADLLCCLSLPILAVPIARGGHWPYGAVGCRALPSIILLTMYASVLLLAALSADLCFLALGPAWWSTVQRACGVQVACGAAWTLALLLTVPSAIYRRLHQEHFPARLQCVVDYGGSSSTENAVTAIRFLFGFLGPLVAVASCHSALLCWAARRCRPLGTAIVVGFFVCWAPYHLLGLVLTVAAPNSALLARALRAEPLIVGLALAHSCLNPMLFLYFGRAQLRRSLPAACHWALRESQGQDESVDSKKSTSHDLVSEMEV

ADORA3 = target: T4, ADORA3 (UniProt P0DMS8 1-318)
T4 sequence (looked up): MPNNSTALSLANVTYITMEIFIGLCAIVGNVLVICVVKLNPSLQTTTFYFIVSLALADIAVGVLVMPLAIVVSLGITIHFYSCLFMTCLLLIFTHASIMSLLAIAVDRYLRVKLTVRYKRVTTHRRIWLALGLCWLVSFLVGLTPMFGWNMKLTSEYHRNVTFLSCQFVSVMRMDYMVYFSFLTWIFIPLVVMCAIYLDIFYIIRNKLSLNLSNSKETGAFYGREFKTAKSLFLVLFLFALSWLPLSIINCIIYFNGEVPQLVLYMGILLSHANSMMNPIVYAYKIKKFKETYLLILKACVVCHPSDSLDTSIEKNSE

CRHR2 = target: T5, CRHR2 (UniProt Q13324 1-411, limits assumed)
T5 sequence (looked up): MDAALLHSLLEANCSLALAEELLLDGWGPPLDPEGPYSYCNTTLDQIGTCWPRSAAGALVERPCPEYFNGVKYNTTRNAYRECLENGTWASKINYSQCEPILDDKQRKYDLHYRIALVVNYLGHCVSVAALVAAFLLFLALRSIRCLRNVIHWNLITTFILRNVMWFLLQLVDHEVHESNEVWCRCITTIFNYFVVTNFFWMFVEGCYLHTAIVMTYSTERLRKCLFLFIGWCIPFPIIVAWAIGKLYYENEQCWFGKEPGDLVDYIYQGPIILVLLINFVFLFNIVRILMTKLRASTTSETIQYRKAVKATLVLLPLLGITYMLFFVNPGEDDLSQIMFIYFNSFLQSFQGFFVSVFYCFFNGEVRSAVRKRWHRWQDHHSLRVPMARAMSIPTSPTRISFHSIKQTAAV

EDG1 = EDG1 (UniProt P21453 1-382)
EDG1, sequence (P21453 whole entry): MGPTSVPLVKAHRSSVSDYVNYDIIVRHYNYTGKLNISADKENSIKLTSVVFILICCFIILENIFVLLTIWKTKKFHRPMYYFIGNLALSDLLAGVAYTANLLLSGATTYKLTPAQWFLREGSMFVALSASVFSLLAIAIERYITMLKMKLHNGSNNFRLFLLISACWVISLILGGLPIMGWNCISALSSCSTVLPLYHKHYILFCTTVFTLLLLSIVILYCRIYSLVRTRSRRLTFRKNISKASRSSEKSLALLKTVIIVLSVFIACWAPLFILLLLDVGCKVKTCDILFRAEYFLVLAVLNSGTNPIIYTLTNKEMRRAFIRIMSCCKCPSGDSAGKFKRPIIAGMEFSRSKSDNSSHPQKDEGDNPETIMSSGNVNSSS

EDG4 = EDG4 (UniProt Q9HBW0 1-348)
EDG4, sequence (Q9HBW0 whole entry): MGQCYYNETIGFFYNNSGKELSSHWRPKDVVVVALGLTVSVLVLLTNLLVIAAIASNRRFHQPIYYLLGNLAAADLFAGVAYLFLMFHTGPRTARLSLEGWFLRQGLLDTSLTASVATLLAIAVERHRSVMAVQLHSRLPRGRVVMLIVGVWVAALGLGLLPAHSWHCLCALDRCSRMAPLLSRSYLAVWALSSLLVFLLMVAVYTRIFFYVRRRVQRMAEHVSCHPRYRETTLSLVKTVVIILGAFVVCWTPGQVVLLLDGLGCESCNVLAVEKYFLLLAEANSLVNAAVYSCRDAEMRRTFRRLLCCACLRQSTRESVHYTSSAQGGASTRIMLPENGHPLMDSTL

EDG6 = target: T6, EDG6 (UniProt O95977 1-384)
T6 sequence (looked up): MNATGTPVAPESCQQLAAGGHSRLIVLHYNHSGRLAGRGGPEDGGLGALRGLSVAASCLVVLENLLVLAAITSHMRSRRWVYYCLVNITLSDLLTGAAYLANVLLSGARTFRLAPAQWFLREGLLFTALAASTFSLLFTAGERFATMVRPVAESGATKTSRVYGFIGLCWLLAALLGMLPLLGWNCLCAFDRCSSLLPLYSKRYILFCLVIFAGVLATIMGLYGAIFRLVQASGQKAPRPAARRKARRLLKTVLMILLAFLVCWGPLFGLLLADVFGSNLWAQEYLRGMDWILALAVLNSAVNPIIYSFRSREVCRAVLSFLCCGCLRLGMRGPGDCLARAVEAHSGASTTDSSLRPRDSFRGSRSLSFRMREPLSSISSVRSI

ADRB1 = ADRB1 (UniProt P08588 1-477)
ADRB1, sequence (P08588 whole entry): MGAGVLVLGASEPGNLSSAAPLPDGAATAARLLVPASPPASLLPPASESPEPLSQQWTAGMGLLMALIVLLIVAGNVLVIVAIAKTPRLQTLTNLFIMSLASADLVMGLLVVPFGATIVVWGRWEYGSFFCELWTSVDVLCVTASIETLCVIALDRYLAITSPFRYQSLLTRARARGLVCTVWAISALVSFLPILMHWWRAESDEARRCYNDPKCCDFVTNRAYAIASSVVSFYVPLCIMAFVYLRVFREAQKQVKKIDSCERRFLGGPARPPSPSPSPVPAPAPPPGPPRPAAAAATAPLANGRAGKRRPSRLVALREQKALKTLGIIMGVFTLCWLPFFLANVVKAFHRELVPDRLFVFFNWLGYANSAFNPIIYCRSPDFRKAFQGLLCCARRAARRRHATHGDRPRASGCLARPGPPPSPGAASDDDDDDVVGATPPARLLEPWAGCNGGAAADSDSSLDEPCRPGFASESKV

GPR35 = GPR35 (UniProt Q9HC97 1-309, limits assumed)
GPR35, sequence (Q9HC97 whole entry): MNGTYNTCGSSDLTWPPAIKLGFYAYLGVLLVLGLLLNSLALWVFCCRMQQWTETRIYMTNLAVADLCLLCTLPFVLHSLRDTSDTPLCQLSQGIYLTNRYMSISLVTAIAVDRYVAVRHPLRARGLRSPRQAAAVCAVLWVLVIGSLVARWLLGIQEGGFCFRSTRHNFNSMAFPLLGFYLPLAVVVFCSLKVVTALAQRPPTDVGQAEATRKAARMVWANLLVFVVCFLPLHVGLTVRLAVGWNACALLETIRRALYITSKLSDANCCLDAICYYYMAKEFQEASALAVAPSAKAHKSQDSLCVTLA

HTR2A, sequence (P28223 whole entry): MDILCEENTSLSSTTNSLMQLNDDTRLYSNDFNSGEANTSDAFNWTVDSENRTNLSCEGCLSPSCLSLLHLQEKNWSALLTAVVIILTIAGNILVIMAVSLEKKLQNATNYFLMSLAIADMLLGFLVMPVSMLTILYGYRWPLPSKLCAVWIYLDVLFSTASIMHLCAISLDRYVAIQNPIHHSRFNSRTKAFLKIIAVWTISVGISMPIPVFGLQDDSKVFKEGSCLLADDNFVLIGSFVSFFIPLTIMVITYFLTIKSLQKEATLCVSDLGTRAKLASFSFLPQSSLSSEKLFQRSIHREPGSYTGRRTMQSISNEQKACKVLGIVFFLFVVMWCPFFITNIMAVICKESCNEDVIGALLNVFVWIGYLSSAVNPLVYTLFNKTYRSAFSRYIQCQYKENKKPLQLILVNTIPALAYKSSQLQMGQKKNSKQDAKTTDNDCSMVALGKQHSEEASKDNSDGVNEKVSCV
MC4R, sequence (P32245 whole entry): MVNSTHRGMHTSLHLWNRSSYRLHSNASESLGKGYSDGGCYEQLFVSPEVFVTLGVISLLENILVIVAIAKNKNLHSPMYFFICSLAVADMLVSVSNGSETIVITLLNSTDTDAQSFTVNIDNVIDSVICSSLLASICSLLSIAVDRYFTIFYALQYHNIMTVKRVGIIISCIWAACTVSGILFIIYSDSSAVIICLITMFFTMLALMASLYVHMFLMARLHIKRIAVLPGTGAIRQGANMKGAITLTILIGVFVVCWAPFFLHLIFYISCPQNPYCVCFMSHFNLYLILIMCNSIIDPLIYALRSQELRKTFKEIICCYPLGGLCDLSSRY
HTR5A, sequence (P47898 whole entry): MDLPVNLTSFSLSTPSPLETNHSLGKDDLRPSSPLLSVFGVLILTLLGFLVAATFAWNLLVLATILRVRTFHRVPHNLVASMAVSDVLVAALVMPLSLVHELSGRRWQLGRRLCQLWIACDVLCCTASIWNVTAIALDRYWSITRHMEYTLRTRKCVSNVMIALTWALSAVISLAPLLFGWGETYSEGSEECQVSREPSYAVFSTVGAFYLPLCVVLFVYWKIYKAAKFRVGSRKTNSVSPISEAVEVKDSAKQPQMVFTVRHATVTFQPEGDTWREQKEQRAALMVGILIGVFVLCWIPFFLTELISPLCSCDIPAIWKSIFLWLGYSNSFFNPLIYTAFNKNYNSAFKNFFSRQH

QATVGDVNTDRPGLLDLK (also: synthesised on Rink amide resin, C-terminal amide not given here outright) [octadecaneuropeptide (ODN)]
% Activity, arrestin, antagonist mode, 2.5 uM (HTR2A): -9.7% | % Activity, arrestin, antagonist mode, 2.5 uM (HTR5A): -0.3% | % Activity, arrestin, antagonist mode, 2.5 uM (MC4R): -4.6% | % Activity, arrestin, antagonist mode, 2.5 uM (NPY1R): -2.7% | % Activity, arrestin, antagonist mode, 2.5 uM (OPRD1): 10% | % Activity, arrestin, antagonist mode, 2.5 uM (OXTR): 1.3% | % Activity, arrestin, antagonist mode, 2.5 uM (C5aR1): -14.2% | % Activity, arrestin, antagonist mode, 2.5 uM (C5L2): 3.5% | % Activity, arrestin, antagonist mode, 2.5 uM (ADORA3): 0.5% | % Activity, arrestin, antagonist mode, 2.5 uM (CRHR2): -8.6% | % Activity, arrestin, antagonist mode, 2.5 uM (EDG1): -25.9% | % Activity, arrestin, antagonist mode, 2.5 uM (EDG4): 4.6% | % Activity, arrestin, antagonist mode, 2.5 uM (EDG6): 4.5% | % Activity, arrestin, antagonist mode, 2.5 uM (ADRB1): 12.6% | % Activity, arrestin, antagonist mode, 2.5 uM (GPR35): -12.2%
